Test results: publication PMC8041783

Biological target: His-FliI(R33A) (Salmonella enterica) (UniProt P26465)

“His-FliI(R33A) (from UniProt P26465 1-456) (enzyme)” was tested, and the ATPase activity (Malachite Green assay, 4 mM ATP) at 17 to 85 nM FliI(R33A) (nmol of phosphate min^−1 μg^−1) was 1.21.
